# From patent publication US20180009892A1 (EUREKA THERAPEUTICS, published 2018)
# Columns and labels:
# [1] = target: T1, mouse ROR1-ECD (mouse, UniProt Q9Z139 30-406); experiment: phage antibody protein ELISA
# T1 construct: extracellular domain; also called mROR1
# Protocol: (§1) Binding specificities of the 45 phage antibodies were determined by protein ELISA against human ROR1-ECD, human ROR2-ECD and mouse ROR1-ECD (FIG. 12).
# [2] = target: T2, human ROR2-ECD (human, UniProt Q01974 34-403); experiment: phage antibody protein ELISA
# T2 construct: extracellular domain; also called hROR2
# T2 sequence (Q01974 34-403): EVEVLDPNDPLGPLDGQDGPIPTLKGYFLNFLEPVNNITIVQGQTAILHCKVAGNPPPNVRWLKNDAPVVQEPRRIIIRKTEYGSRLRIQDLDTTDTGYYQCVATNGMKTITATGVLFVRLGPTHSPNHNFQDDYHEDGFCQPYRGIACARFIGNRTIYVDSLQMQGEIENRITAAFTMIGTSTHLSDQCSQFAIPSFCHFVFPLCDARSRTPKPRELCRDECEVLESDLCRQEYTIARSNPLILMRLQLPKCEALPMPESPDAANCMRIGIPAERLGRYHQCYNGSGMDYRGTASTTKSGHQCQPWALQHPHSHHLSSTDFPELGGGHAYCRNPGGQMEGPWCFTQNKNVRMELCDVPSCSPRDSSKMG
# Protocol: as §1
# [3] = target: T3, human ROR1 extracellular domain (ECD) protein (human, UniProt Q01973 30-406); experiment: competitive phage ELISA: soluble ROR1 against ROR1-coated plate
# T3 construct: also called hROR1-ECD; human ROR1-ECD
# T3 sequence (Q01973 30-406 limits assumed): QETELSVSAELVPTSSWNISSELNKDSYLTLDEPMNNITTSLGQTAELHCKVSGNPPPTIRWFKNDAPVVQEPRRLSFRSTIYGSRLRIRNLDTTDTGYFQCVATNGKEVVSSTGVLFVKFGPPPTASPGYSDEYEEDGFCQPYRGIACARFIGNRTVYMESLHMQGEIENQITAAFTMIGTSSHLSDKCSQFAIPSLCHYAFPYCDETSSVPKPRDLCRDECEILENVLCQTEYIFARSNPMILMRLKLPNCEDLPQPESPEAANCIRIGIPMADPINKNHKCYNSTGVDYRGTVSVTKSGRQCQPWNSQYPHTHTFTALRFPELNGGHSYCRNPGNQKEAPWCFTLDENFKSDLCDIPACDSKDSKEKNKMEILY
# Protocol: Purified phage antibodies were first diluted serially in PBST buffer, and tested for binding to a ROR1-coated plate. The dilution that gave 50-80% saturating signal was used in the solution binding assay in which phage were first incubated with increasing concentration of ROR1 for one to two hours, and then transferred to a ROR1-coated plate for 10-15 minutes to capture the unbound phage.
# [4] = target: T4, ROR1 extracellular domain Fc-fusion, dimer (human, UniProt Q01973 30-406); experiment: SPR, immobilised ROR1 dimer, antibody injected, 1:1 model
# T4 construct: also called ROR1 dimer; hROR1 dimeric ECD-Fc fusion protein; not shown: Fc part
# T4 sequence (Q01973 30-406): as the sequence (Q01973 30-406 limits assumed) above
# Protocol: (§2) The binding affinities of ROR1 extracellular domain dimer and monomer for anti-ROR1 antibodies were determined by surface plasmon resonance (SPR). ROR1 extracellular domain Fc-fusion, “dimer,” and ROR1 extracellular domain Fc fusion:Fc heterodimer, “monomer,” are the dimer and monomeric forms of ROR1 used for affinity analysis, respectively. Briefly, ROR1 dimer and monomer were directly immobilized to a CM4 chip using an amine coupling kit and 100 mM ethylenediamine in 100 mM Sodium Borate buffer, pH 8.0 as the blocking reagent. Approximately 100-150 RU of ROR1 dimer and monomer were immobilized on separate flow cells and an un-derivatized flow cell was used as a reference control. […] Dissociation was followed for 180 seconds. The association constant, dissociation constant, and affinity of each anti-ROR1 antibody was calculated using the Biacore T200 Evaluation Software 1:1 binding model.
# (§3) Sensorgrams were normalized to 100 RU using the “binding stability point” at the end of the association phase but before the dissociation phase.
# [5] = target: T5, ROR1 extracellular domain Fc fusion:Fc heterodimer, monomer (human); experiment: SPR, immobilised ROR1 monomer, antibody injected, 1:1 model
# T5 construct: Heterodimer of one ROR1 ECD-Fc chain and one Fc chain; also called ROR1 monomer; hROR1 monomeric ECD-Fc fusion protein; not shown: Fc part; Fc alone
# T5 sequence (Q01973 30-406, one chain of several): as the sequence (Q01973 30-406 limits assumed) above
# Protocol: as §2, §3
# [6] = target: T4, ROR1 extracellular domain Fc-fusion, …; experiment: SPR, immobilised ROR1 dimer, antibody injected, 1:1 model; apparent affinity
# Protocol: as §2, §3
# T1 sequence (Q9Z139 30-406): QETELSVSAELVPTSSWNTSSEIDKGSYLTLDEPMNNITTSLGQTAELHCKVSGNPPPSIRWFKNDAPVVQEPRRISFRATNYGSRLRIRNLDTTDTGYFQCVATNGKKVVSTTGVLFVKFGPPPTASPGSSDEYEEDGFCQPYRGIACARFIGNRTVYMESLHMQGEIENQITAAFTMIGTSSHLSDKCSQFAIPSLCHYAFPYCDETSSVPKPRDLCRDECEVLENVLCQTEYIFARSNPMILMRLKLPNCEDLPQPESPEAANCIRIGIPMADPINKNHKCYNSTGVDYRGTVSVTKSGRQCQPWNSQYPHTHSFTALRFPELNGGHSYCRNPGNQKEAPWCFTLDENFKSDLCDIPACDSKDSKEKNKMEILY
binder,measurement,setting,value
"P601-14 (scFv, V domains shown) VH: QVQLVQSGAEVKKPGESLKISCKDSGYSFTNYWLGWVRQMPGKGLEWMGIIYPGDSDTRYSPSFRGQVTISADKSISTAYLQWSSLKASDTAMYYCARLNLATHTAFDIWGQGTTVTVSS VL: QSVLTQPASVSGSPGQSITISCTGTSSDVGGYNYVSWYQQHPGKAPKLMIYDVSNRPSGVSNRFSGSKSGNTASLTISGLQAEDEADYYCSSYTSSSTLWVFGGGTKLTVLG",binding result,[1],binds
same,binding result,[2],no binding
same,IC50,[3],3.22 nM
"Antibody 601-147 (antibody, V domains shown) VH: QMQLVQSGAEVKKPGASVKVSCKASGYTFSRYYIHWVRQAPGQGLEWMGLINPGGGSTNYAQKFQGRVTMTRDTSTNTVYLELSSLRSDDTAVYYCARDYGTIDARRFDFWGQGTLVTVSS VL: QSALTQPPSASGTPGQRVTISCSGSSSNIGSNYVYWYQQLPGTAPKLLIYRNNQRPSGVPDRFSGSKSGTSASLAISGLRSEDEADYYCAAWDDSLSGYVFGTGTKVTVL",koff,[4],0.00063 s⁻¹
same,kon,[4],680000 M⁻¹ s⁻¹
same,Kd,[5],2.8 nM
same,koff,[5],0.0017 s⁻¹
same,kon,[5],590000 M⁻¹ s⁻¹
same,Kd,[6],0.9 nM
"Antibody 601-50 (antibody, V domains shown) VH: QVQLQQSGAEVKKPGASVKVSCKASGYTFSRYYIHWVRRAPGQGLEWMGLINPGGGSTNYAQKFQGRVTMTRDTSTNTVYLELSSLRSDDTAVYYCARDYGTIDARRFDFWGQGTLVTVSS VL: QSALTQPPSASGTPGQRVTISCPGSSSNIGSNYVYWYQQLPGTAPKLLIYRNNQRPSGVPDRFSGSKSGTSATLGITGLQTGDEADYYCGTWDSSLSAYVFGTGTKVTVL",koff,[4],0.0011 s⁻¹
same,kon,[4],940000 M⁻¹ s⁻¹
same,Kd,[5],1.5 nM
same,koff,[5],0.0016 s⁻¹
same,kon,[5],1.1e+06 M⁻¹ s⁻¹
same,Kd,[6],1.1 nM
"Antibody 601-4 (antibody, V domains shown) VH: EVQLVQSGPGLVKPSGTLSLTCAVSGGSISSSNWWSWVRQPPGKGLEWIGEIYHSGSTNYNPSLKSRVTISVDKSKNQFSLKLGSVTAADTATYYCARDLWLGEWDLWGQGTLVTVSS VL: QSVLTQPPSASGAPGQRVTISCSGGISNVGTNGVNWYQHLPGTAPKLLVDAMNQRPSGVPDRFSGSRSGTSGSLAITGLRSEDEADYYCATWDDSLSGVLFGGGTKLTVLG",koff,[4],0.00076 s⁻¹
same,kon,[4],3.6e+06 M⁻¹ s⁻¹
same,Kd,[5],0.3 nM
same,koff,[5],0.0016 s⁻¹
same,kon,[5],4.6e+06 M⁻¹ s⁻¹
same,Kd,[6],0.2 nM
"Antibody 601-130 (antibody, V domains shown) VH: EVQLVETGGGLVKPGGSLRLSCEASGFSLSSYSMNWVRQAPGKGLEWVSSISSSSTHIYYADSLKGRFTISRDNAKNSLFLQMDNLRAEDTAVYYCARATIGFDYWGQGTLVTVSS VL: QSVLTQPPSVSGAPGQRVTISCTGSSSNIGAGYDVHWYQQLPGTAPKLLIYGNSNRPSGVPDRFSGSKSGTSASLAITGLQAEDEADYYCQSYDSSLSGYVFGTGTKLTVL",koff,[4],0.0012 s⁻¹
same,kon,[4],520000 M⁻¹ s⁻¹
same,Kd,[5],4.1 nM
same,koff,[5],0.0018 s⁻¹
same,kon,[5],450000 M⁻¹ s⁻¹
same,Kd,[6],2.2 nM
"P601-1 (scFv, V domains shown) VH: EVQLVESGGGLVKPGGSLRLSCAASGFTFSDYYMSWIRQAPGKGLEWVSYISDSTNTIYYADSVKGRFTVSRDNPKNSLYLQMISLRAEDTAVYYCARAVGAGEGFDHWGQGTLVTVSS VL: not shown",binding result,[1],binds
same,binding result,[2],no binding
same,IC50,[3],0.11 nM
"P601-57 (scFv, V domains shown) VH: EVQLVQSGAEVKKPGSSVKISCKASGGAFTNFGISWVRQAPGQGLEWMGWISTYNSETNYAQKLQGRVTMTTDTSTSTAYMELRSLRSDDTAVYYCARDYYSDSSGYWDDAFDIWGQGTLVTVSS VL: not shown",binding result,[2],no binding
same,IC50,[3],4.08 nM
"Antibody 601-149 (antibody, V domains shown) VH: EAQLVESGGGLVKPGGSLRLSCAASGFTFSDYYMGWVRQAPGKGLKWLSYISDRAHTIYDTDSVKGRFTISRDDAKSSLYLRMNNLRVEDTAVYYCARAVGAGEGFDYWGQGTLVTVSS VL: DIQLTQSPSSLSASVGDRVTITCQASQDVRNYLNWYQQKPGKAPNLLIYDATNLESGVPSRFSGSGSGTDFTFTISSLQPEDFATYYCQQYDNLPLSFGGGTKVEIK",koff,[4],0.00023 s⁻¹
same,kon,[4],1.9e+06 M⁻¹ s⁻¹
same,Kd,[5],0.4 nM
same,koff,[5],0.00069 s⁻¹
same,kon,[5],1.6e+06 M⁻¹ s⁻¹
same,Kd,[6],0.1 nM
"Antibody 601-87 (antibody, V domains shown) VH: QVQLQESGPGLVKSSETLSLTCTVSGGSMNNYYWSWIRQPAGKGLEWMGRIYSSGSTNYNPALKSRVTMSVDTSKNQFSLNLSSVTAADTAIYYCARASWSGTYWALFDYWGQGTLVTVSS VL: ETTLTQSPAFMSATPGDKVNISCKASQDIDDDLNWYQQKPGEAPILIIQEATTLVPGIPPRFSGSGFGTDFTLTINSMQSEDVAYYFCLQHDNFPPTFGQGTKVEIK",koff,[4],0.00058 s⁻¹
same,kon,[4],760000 M⁻¹ s⁻¹
same,Kd,[5],2.2 nM
same,koff,[5],0.0013 s⁻¹
same,kon,[5],600000 M⁻¹ s⁻¹
same,Kd,[6],0.8 nM
"P601-43 (scFv, V domains shown) VH: QVQLQQSGAEVKKPGASVRVSCKASGYSFGNNGITWVRQAPGQGLEWMGWISTYNGNTNYAQKLQGRVTMTTDTSTSTAYMELRSLRSDDTAVYYCARDYYSDSSGYWDDAFDIWGQGTTVTVSS VL: not shown",binding result,[2],no binding
same,IC50,[3],0.23 nM
"Antibody 601-37 (antibody, V domains shown) VH: EVQLVQSGAEVKKPGASVKVSCKASGYTFNNYGFSWVRQAPGQGLEWMGWISVYNGNTNYAQKLQGRVTMTTDTSTSTAYMELRSLRSDDTAVYYCARDYYSDSSGYWDDAFDIWGQGTMVTVSS VL: AIRMTQSPSSLSASVGDRVTITCQASQDISNYLNWYQQKPGKAPKLLIYAASSLQSGVPSRFSGSGSGTDFTLTISSLQPEDFATYYCQQSYSTPFTFGPGTKVDIK",koff,[4],0.0018 s⁻¹
same,kon,[4],1e+06 M⁻¹ s⁻¹
same,Kd,[5],3 nM
same,koff,[5],0.0027 s⁻¹
same,kon,[5],920000 M⁻¹ s⁻¹
same,Kd,[6],1.7 nM
"Antibody 601-141 (antibody, V domains shown) VH: QVQLQQSGAEVKKPGASVKVSCKASGHTFSNYGISWVRQAPGQGLEWMGWISTYNGNTNYAQKLQGRVTMTTDTSTSTAYMELRSLRSDDTAVYYCARDYYSDSSGYWDDAFDIWGQGTTVTVSS VL: not shown",koff,[4],0.022 s⁻¹
same,kon,[4],1.8e+06 M⁻¹ s⁻¹
same,Kd,[5],20.6 nM
same,koff,[5],0.026 s⁻¹
same,kon,[5],1.2e+06 M⁻¹ s⁻¹
same,Kd,[6],11.9 nM
"Antibody 601-65 (antibody, V domains shown) VH: QVQLQQSGPGLVKPSQTLSLTCAISGDSVSSNSATWNWIRQSPSRGLEWLGRTYYRSKWYNDYAVSVKSRIIINPDTSKNQFSLQLNSVTPEDTAVYYCARGVRAFDIWGQGTTVTVSS VL: QSVLTQPPSVSGTPGQRVTIFCSGGSNNIGRSSVYWYRQAAGTAPKLLIYKTDQRPSGVPDRFAASKSGASASLAISGLRSEDEADYHCATWDDSLSAVVFGGGTKLTVL",koff,[4],0.0072 s⁻¹
same,kon,[4],1.1e+06 M⁻¹ s⁻¹
same,Kd,[5],6.6 nM
same,koff,[5],0.011 s⁻¹
same,kon,[5],1.7e+06 M⁻¹ s⁻¹
same,Kd,[6],6.4 nM
"Antibody 601-66 (antibody, V domains shown) VH: QVQLVQSGAEVKEPGASVKVSCKASGYTFRNSGITWVRQAPGQGLEWMGWINPNSGGAMYVDNFQGRATMTRDTSINTAYMELRSLSSDDTAVYYCARGMADLIDVFDIWGQGTLVTVSS VL: TQPALTQPASVSGSPGQSITISCTGTSSDFGDYDYVSWYQQHPGKAPKLMIYDVSDRPSGVSNRFSGSKSGNTASLTISGLQAEDEADYFCSSFTTSSTLVFGGGTKLTVL",koff,[4],0.0051 s⁻¹
same,kon,[4],3.1e+06 M⁻¹ s⁻¹
same,Kd,[5],2.4 nM
same,koff,[5],0.0059 s⁻¹
same,kon,[5],2.5e+06 M⁻¹ s⁻¹
same,Kd,[6],1.7 nM
"Antibody 601-70 (antibody, V domains shown) VH: EVQLVQSGAELKKPGSSVRVSCKTSGGSFKTHGISWVRQAPGQGLEWMGWINPNSGGALYVDNFQGRATMTRDTSINTAYMELRSLSSDDTAVYYCARGMADLIDVFDIWGQGTMVTVSS VL: TQPALTQPASVSGSPGQSITISCTGTSSDFGDYDYVSWYQQHPGKAPKLMIYDVSDRPSGVSNRFSGSKSGNTASLTISGLQAEDEADYFCSSFTTSSTLVFGGGTKLTVL",koff,[4],0.018 s⁻¹
same,kon,[4],5.1e+06 M⁻¹ s⁻¹
same,Kd,[5],5.4 nM
same,koff,[5],0.019 s⁻¹
same,kon,[5],3.6e+06 M⁻¹ s⁻¹
same,Kd,[6],3.5 nM
"Antibody 601-9 (antibody, V domains shown) VH: QLQLQESGPGVVKPSGTLSLTCTVSGGSISRSDGYWGWVRQPPGKGLEWIGSIYDTGTTYYSPSLKSRLIISVDTSKNQFSLTLNSVTAADTAVYYCASMGGLRSSSSDAFHTWGPGTMVTVSS VL: QSVLTQPPSVSVAPGETARITCGGTNIGSESVHWYQQRPGQAPVLVVYDDTDRPSGIPERFSGSNSGNTATLTISRVEAGDGADYYCQVWDSVSDRYVFGTGTKVTVL",koff,[4],0.021 s⁻¹
same,kon,[4],1.4e+06 M⁻¹ s⁻¹
same,Kd,[5],27.6 nM
same,koff,[5],0.017 s⁻¹
same,kon,[5],630000 M⁻¹ s⁻¹
same,Kd,[6],15.3 nM
